Source: patent publication US20240101645A1 (HENRY M JACKSON FOUNDATION FOR THE ADVANCEMENT OF MILITARY …, published 2024)

T1: HCoV-NL63 spike antigens (bead panel) (HCoV-NL63, UniProt Q6Q1S2 19-1296)
T1 sequence: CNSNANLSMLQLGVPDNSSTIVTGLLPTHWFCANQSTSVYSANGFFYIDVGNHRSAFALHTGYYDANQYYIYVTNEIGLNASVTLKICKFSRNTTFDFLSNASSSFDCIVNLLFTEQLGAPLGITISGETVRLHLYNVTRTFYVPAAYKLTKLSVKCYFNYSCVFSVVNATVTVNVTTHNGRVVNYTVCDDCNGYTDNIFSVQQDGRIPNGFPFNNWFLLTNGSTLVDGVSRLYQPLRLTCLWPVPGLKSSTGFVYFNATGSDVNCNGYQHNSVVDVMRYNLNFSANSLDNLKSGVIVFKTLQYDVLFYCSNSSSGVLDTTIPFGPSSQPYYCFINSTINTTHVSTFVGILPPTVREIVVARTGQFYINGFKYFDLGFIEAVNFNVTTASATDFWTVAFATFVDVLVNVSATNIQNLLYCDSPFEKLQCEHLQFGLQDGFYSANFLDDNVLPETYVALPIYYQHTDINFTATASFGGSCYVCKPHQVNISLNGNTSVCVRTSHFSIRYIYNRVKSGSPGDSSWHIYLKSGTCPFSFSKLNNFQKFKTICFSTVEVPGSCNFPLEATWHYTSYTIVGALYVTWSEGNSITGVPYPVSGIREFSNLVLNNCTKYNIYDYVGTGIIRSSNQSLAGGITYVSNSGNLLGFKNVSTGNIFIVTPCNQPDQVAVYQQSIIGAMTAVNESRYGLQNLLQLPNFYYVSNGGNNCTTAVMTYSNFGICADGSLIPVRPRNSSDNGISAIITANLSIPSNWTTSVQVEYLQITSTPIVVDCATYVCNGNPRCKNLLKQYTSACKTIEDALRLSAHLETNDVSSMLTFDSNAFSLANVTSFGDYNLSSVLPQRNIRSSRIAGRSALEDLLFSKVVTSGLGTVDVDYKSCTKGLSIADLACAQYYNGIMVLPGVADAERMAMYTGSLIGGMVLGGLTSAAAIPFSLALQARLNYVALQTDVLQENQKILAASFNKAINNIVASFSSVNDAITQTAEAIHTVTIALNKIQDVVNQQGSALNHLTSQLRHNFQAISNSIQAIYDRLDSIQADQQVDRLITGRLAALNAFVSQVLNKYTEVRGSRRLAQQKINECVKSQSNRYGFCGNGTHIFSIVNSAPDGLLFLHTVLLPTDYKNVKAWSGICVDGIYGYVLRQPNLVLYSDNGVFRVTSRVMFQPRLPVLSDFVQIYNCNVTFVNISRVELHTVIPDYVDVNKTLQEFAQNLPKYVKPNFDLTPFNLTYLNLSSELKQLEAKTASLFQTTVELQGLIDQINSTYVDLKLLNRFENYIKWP

T2: HCoV-HKU1 spike antigens (bead panel) (HCoV-HKU1, UniProt Q5MQD0 13-1300)
T2 sequence: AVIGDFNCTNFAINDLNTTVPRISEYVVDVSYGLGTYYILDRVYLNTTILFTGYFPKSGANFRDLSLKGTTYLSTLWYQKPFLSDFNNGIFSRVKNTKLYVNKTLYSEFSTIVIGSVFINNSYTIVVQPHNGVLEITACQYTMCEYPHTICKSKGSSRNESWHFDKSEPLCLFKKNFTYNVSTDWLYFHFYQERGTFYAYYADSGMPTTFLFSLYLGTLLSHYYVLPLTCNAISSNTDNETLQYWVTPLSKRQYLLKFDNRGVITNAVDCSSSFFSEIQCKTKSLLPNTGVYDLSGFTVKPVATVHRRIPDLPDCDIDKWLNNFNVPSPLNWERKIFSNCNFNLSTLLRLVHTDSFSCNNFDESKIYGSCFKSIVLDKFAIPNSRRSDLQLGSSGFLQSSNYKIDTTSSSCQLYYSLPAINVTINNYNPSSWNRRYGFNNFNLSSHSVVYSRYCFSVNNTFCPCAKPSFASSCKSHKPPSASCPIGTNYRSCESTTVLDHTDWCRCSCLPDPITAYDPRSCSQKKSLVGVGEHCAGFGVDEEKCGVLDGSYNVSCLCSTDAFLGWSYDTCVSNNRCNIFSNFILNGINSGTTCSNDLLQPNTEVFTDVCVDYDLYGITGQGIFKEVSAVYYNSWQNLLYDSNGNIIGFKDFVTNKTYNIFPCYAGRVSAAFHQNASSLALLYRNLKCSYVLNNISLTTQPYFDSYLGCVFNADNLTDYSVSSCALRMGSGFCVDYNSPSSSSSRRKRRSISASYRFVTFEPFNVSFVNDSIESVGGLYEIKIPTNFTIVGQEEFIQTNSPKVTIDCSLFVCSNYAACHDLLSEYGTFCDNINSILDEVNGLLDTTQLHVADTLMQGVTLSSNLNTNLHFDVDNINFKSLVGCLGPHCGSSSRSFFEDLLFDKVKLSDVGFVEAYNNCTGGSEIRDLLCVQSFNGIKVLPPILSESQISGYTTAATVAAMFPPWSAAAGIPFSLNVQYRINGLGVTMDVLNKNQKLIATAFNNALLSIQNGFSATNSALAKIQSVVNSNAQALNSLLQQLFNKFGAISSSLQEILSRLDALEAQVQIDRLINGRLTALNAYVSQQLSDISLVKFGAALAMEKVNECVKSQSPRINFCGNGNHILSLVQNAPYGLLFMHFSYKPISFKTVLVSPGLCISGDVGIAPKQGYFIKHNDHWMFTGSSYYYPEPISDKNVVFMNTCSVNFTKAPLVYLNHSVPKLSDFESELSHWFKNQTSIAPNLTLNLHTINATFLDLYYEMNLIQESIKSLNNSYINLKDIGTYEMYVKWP


What was measured:
[1] = biological target: T1, HCoV-NL63 spike antigens (bead panel); assay: multiplex bead assay
[2] = biological target: T2, HCoV-HKU1 spike antigens (bead panel); assay: multiplex bead assay

Binder | binding result [1] | binding result [2]
COV_1184 (antibody, V domains shown, human IgG1) VH: QVQLQQWGAGLLKPSETLSLTCAVYGGSFSGYYWSWIRQPPGKGLEWIGEINHSGNTTYNPSLKSRVTISVDTSKNQFSLKLSSVTAADTAVYYCARGLVITYYYDSSGKPFDPWGQGTLVTVSS VL: not shown | no binding | no binding
COV_2032 (antibody, V domains shown, human IgG1) VH: EVQLVESGGGLVQPGGSLRLSCAASGFTFTTYWMHWVRQAPGKGLVWVSRIKTDGSSTNYADSVKGRFTISRDNAKNMLYLQMNSLRAEDTAVYYCAREGPVSIVYFDYWGQGTLVTVSS VL: not shown | no binding | no binding
COV_2169 (antibody, V domains shown, human IgG1) VH: EVQLVESGGGVVQPGRSLRLSCAASGFTFSRYAMHWVRQAPGKGLEWVAVISYEGSNKYYADSVKGRFTISRNNSNNTLSLQMNSLRPDDTAVYYCVRSGGHYFDAFDLWGQGTMVTVSS VL: EIVLTQSPGTLSLSPGERATLSCRASQSVSRNYVAWYQQKPGQAPRLLIYGASSRATGIPDRFSGSGSGTDFTLTISRLEPEDFALYYCQQYGSSYTFGQGTKLEIKR | no binding | no binding
COV_2205 (antibody, V domains shown, human IgG1) VH: EVQLVESGGGLVKPGGSLRLSCAASGFTFSDYYMIWIRQAPGEGLEWVSYISSRSSYTNYADSVKGRFTISRDNARNSLYLQMNSLRAEDTAVYYCARGQHDLLTGYYSWAYFDYWGQGTLVTVSS VL: not shown | no binding | no binding
COV_2215 (antibody, V domains shown, human IgG1) VH: EVQLVESGGGLVKPGGSLRLSCAASGFTFSHAWMSWVRQAPGKGLEWVGRIKSKTDGGTADYAAPVKGRFTISRDDSKNTLYLQMNSLKTEDTAVYYCATIRYYYDSSAYLNDAFDIWGQGTMVTVSS VL: SYELTQPPSVSVSPGQTARITCSGDALPKKYAYWYQQKSGQAPVLVIYEDSKRPSGIPERFSGSSSGTMATLTISGAQVEDEADYYCYSTDSSGNHRVFAGGTKLTVLG | no binding | no binding
COV_3069 (antibody, V domains shown, human IgG1) VH: EVQLVESGGGLVKPGGSLRLSCAASGFTFGSYTMNWVRQAPGKGLEWVSSIDTTSSSIYYADSLKGRFAISRDSAKNSLYLQMNRLRAEDTAVYYCARGNGHSYDSSGYHYGMYFDYWGQGTLVTVSS VL: DIQMTQSPSTLSASVGDRVTITCRASQSISRWLAWYQQKPGKAPKLLIYEVSSLENGVPSRFSGSRSGTEFTLTISSLQPDDFAIYYCQQYNTYSRTFGQGTKVEIKR | no binding | no binding
COV_3129 (antibody, V domains shown, human IgG1) VH: QVQLQQWGAGLLKPSDTLSLTCAANGGGSFSGYYLGYIRQSPGKGLEWIGEINHNGGTNYNPSLKSRVTISGDTSKNQFSLKLSSVTAADTAIYYCARSRDSSLGDAVWYEYWGQGTLITVSS VL: EIVLTQSPATLSLSPGERATLSCRASQSVDIYLAWYQQRPGQAPRLLISDASKRATGVPARFSGSGSGTDFTLTINSLEPEDFAIYYCQQRRDWPINFGQGTRLEIKR | no binding | no binding
COV_2125 (antibody, V domains shown, human IgG1) VH: EVQLVESGGGVVQPGRSLRLSCAASGFTFSSYGMHWVRQAPGKGLEWVAVISYDGSNKYYADSVKGRFTISRDNSKNTLSLQMNSLRPEDTAVYYCAKDSPYYYDSSGYYPGYFQDWGQGSLVTVSS VL: DIQMTQSPSSLSASIGDRVTITCRASQTISDYLNWYQQKPGKAPNLLIYAASTLQSGVPSRFSGSGSGTDFTLTISSLQPEDFATYYCQQSYITPRTFGQGTKVEIK | no binding | no binding
